Assay results as given in the supplement of paper PMC9112550, “Optimization of the antimicrobial peptide Bac7 by deep mutational scanning” (BMC Biology, 2022).

System: Escherichia coli TOP10
Assay: shrunken log2 fold change of peptide-encoding DNA abundance (4.5 h post-induction vs induction); higher = less antimicrobial activity (less host growth inhibition)
Details: time post-induction: 4.5 h; library: site-saturation at positions 5, 18, 19, 20
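Also: peptides expressed intracellularly from a pBAD plasmid library in pooled LB shake-flask culture, induced with 0.3% L-arabinose, DNA abundance read by NGS, three biological replicates, DESeq2 with apeglm shrinkage.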

Sequence | shrunken log2 fold change
RRIRERPPRLPRPRPRPDKPPRP | -0.051
RRIRWRPPRLPRPRPRPKGAPRP | 0.732
RRIRSRPPRLPRPRPRPWINPRP | -0.205
RRIRNRPPRLPRPRPRPNPHPRP | -0.116
RRIRYRPPRLPRPRPRPCVNPRP | -0.177
RRIRSRPPRLPRPRPRPVRRPRP | 0.558
RRIRHRPPRLPRPRPRPQWKPRP | -0.0774
RRIRPRPPRLPRPRPRPVHNPRP | -0.038
RRIRGRPPRLPRPRPRPVPIPRP | 0.372
RRIRCRPPRLPRPRPRPLYVPRP | -0.833
RRIRYRPPRLPRPRPRPKIGPRP | -0.177
RRIRDRPPRLPRPRPRPWTTPRP | -0.0204
RRIRKRPPRLPRPRPRPLDQPRP | 0.257
RRIRPRPPRLPRPRPRPCECPRP | -0.014
RRIRKRPPRLPRPRPRPRTAPRP | 0.843
RRIRKRPPRLPRPRPRPVDMPRP | -0.122
RRIRIRPPRLPRPRPRPFMKPRP | -0.127
RRIRKRPPRLPRPRPRPEFHPRP | 0.131
RRIRHRPPRLPRPRPRPNQEPRP | -0.00942
RRIRCRPPRLPRPRPRPHGMPRP | -0.114
RRIRLRPPRLPRPRPRPFCNPRP | -0.245
RRIRDRPPRLPRPRPRPFPRPRP | -0.135
RRIRMRPPRLPRPRPRPSNLPRP | 0.00954
RRIRQRPPRLPRPRPRPYLWPRP | -0.0736
RRIRRRPPRLPRPRPRPAYCPRP | 0.0506

Sequence | shrunken log2 fold change
RRIRNRPPRLPRPRPRPKQYPRP | -0.426
RRIRPRPPRLPRPRPRPLVLPRP | 0.0114
RRIRMRPPRLPRPRPRPIRCPRP | 0.086
RRIRPRPPRLPRPRPRPNDIPRP | -0.632
RRIRLRPPRLPRPRPRPGFRPRP | 0.0673
RRIRTRPPRLPRPRPRPTGNPRP | -0.445
RRIRGRPPRLPRPRPRPDMMPRP | 0.023
RRIRVRPPRLPRPRPRPGTPPRP | -0.00585
RRIRVRPPRLPRPRPRPINGPRP | -0.17
RRIRGRPPRLPRPRPRPQAGPRP | 0.695
RRIRIRPPRLPRPRPRPKDTPRP | -0.224
RRIRARPPRLPRPRPRPMWIPRP | 0.249
RRIRLRPPRLPRPRPRPMMGPRP | -0.0316
RRIRQRPPRLPRPRPRPYTHPRP | -0.723
RRIRNRPPRLPRPRPRPIHLPRP | -0.73
RRIRLRPPRLPRPRPRPPAFPRP | 0.144
RRIRARPPRLPRPRPRPYMGPRP | 0.0124
RRIRNRPPRLPRPRPRPEEEPRP | -0.00134
RRIRNRPPRLPRPRPRPPSWPRP | 0.161
RRIRWRPPRLPRPRPRPWKFPRP | 0.0588
RRIRDRPPRLPRPRPRPCVIPRP | 0.1
RRIRIRPPRLPRPRPRPLTHPRP | -0.358
RRIRYRPPRLPRPRPRPCAQPRP | -0.00639
RRIRGRPPRLPRPRPRPMCYPRP | 0.243
RRIRQRPPRLPRPRPRPRYNPRP | -0.527

Sequence | shrunken log2 fold change
RRIRVRPPRLPRPRPRPDWGPRP | 0.184
RRIRGRPPRLPRPRPRPGGTPRP | 1.09
RRIRMRPPRLPRPRPRPGCLPRP | 0.503
RRIRLRPPRLPRPRPRPVLGPRP | 0.192
RRIRGRPPRLPRPRPRPVKYPRP | 0.235
RRIRPRPPRLPRPRPRPKDKPRP | -0.125
RRIRTRPPRLPRPRPRPHAWPRP | 3.26
RRIRHRPPRLPRPRPRPRADPRP | 0.185
RRIRKRPPRLPRPRPRPNFFPRP | 0.0314
RRIRSRPPRLPRPRPRPFLWPRP | -0.0904
RRIRVRPPRLPRPRPRPEMPPRP | 0.0341
RRIRVRPPRLPRPRPRPGTEPRP | 0.0578
RRIRIRPPRLPRPRPRPKGVPRP | -0.00153
RRIRQRPPRLPRPRPRPVEWPRP | 0.0152
RRIRVRPPRLPRPRPRPLQRPRP | -0.0358
RRIRDRPPRLPRPRPRPRWCPRP | 0.33
RRIRDRPPRLPRPRPRPQTNPRP | 0.118
RRIRVRPPRLPRPRPRPCANPRP | -0.129
RRIRNRPPRLPRPRPRPTRNPRP | 0.0941
RRIRVRPPRLPRPRPRPIKGPRP | -0.155
RRIRKRPPRLPRPRPRPAHQPRP | 0.162
RRIRKRPPRLPRPRPRPYAYPRP | -0.12
RRIRCRPPRLPRPRPRPQIVPRP | -0.345
RRIRARPPRLPRPRPRPGAMPRP | 0.959
RRIRQRPPRLPRPRPRPNIMPRP | -0.462

Sequence | shrunken log2 fold change
RRIRHRPPRLPRPRPRPVTQPRP | -0.296
RRIRHRPPRLPRPRPRPFAEPRP | -0.0659
RRIRTRPPRLPRPRPRPLLGPRP | -0.185
RRIRARPPRLPRPRPRPSPTPRP | 0.328
RRIRMRPPRLPRPRPRPKVLPRP | 0.0109
RRIRLRPPRLPRPRPRPLMCPRP | -0.422
RRIRQRPPRLPRPRPRPHAGPRP | -0.084
RRIRLRPPRLPRPRPRPTSAPRP | 0.659
RRIRPRPPRLPRPRPRPRQPPRP | 0.113
RRIRPRPPRLPRPRPRPPYTPRP | -0.232
RRIRKRPPRLPRPRPRPWECPRP | 0.033
RRIRTRPPRLPRPRPRPRYRPRP | -0.0728
RRIRDRPPRLPRPRPRPKWAPRP | 0.0411
RRIRQRPPRLPRPRPRPEEAPRP | 0.188
RRIRKRPPRLPRPRPRPQSRPRP | 0.0866
RRIRWRPPRLPRPRPRPMHWPRP | 0.194
RRIRKRPPRLPRPRPRPSQVPRP | 0.31
RRIRHRPPRLPRPRPRPWPYPRP | -0.01
RRIRCRPPRLPRPRPRPMHYPRP | -0.24
RRIRCRPPRLPRPRPRPRWSPRP | 0.422
RRIRARPPRLPRPRPRPEPCPRP | 0.126
RRIRLRPPRLPRPRPRPWQSPRP | 0.0341
RRIRFRPPRLPRPRPRPWVLPRP | -0.0735
RRIRYRPPRLPRPRPRPYTEPRP | 0.034
RRIRVRPPRLPRPRPRPRIKPRP | -0.125

Sequence | shrunken log2 fold change
RRIRCRPPRLPRPRPRPECAPRP | 0.543
RRIRQRPPRLPRPRPRPILPPRP | 0.0747
RRIRHRPPRLPRPRPRPYGWPRP | -0.145
RRIRMRPPRLPRPRPRPFNFPRP | -0.598
RRIRVRPPRLPRPRPRPHAWPRP | 0.0267
RRIRPRPPRLPRPRPRPPSKPRP | 0.105
RRIRTRPPRLPRPRPRPKVAPRP | 0.0317
RRIRDRPPRLPRPRPRPDAAPRP | 1.67
RRIRYRPPRLPRPRPRPNNLPRP | -0.582
RRIRNRPPRLPRPRPRPLTNPRP | 0.00172
RRIRRRPPRLPRPRPRPRTRPRP | 0.528
RRIRDRPPRLPRPRPRPTYIPRP | -0.393
RRIRNRPPRLPRPRPRPDAEPRP | 0.45
RRIRWRPPRLPRPRPRPGWKPRP | 0.0668
RRIRGRPPRLPRPRPRPWYLPRP | -0.575
RRIRMRPPRLPRPRPRPRKNPRP | 0.433
RRIRPRPPRLPRPRPRPVTTPRP | -0.0302
RRIRRRPPRLPRPRPRPLVHPRP | 0.223
RRIRCRPPRLPRPRPRPTNMPRP | -0.47
RRIRNRPPRLPRPRPRPQMKPRP | -0.281
RRIRLRPPRLPRPRPRPYTKPRP | 0.119
RRIRMRPPRLPRPRPRPMEAPRP | 0.0555
RRIRNRPPRLPRPRPRPRMIPRP | 0.0468
RRIRGRPPRLPRPRPRPTPNPRP | 0.957
RRIRKRPPRLPRPRPRPMLEPRP | 0.621
